Data published in patent US20190177370A1 (TOKYO UNIVERSITY OF PHARMACY AND LIFE SCIENCES, published 2019).
Square brackets hold non-standard residues; d marks the D form. Primed or numbered codes have the meaning given here. * marks the point of attachment. m‑dPEG(4)″ = m-dPEG(4) acid, coupled to Acp (R^111 group of Formula (4)), COCCOCCOCCOCCC(=O)*; m‑dPEG(4) = m-dPEG(4) acid, coupled to Acp, with Acp forms R^111 of Formula (4); 2Nal = N[C@@H](Cc1ccc2ccccc2c1)C(=O)O; R^118 = not defined here; Ahx = NCCCCCC(=O)O

T1: myostatin (UniProt O14793 267-375, limits assumed)
T1 sequence (looked up): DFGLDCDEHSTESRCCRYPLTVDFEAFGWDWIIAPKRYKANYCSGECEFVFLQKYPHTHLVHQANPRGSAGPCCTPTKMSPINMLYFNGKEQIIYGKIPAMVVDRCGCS


Target: T1, myostatin
Assay: cell-based or functional assay

myostatin inhibitory activity at 1 µM (luciferase reporter assay)	IC50 of the myostatin inhibitory activity (luciferase reporter assay, 0.016 to 2 µM)	Binder
≥ 40 % inhibition	–	{m‑dPEG(4)″-Ahx}-[2Nal]YIEWIKIQIISKLRL-NH2 (SMILES CC[C@H](C)[C@H](NC(=O)[C@H](Cc1ccc(O)cc1)NC(=O)[C@H](Cc1ccc2ccccc2c1)NC(=O)CCCCCNC(=O)CCOCCOCCOCCOC)C(=O)N[C@@H](CCC(=O)O)C(=O)N[C@@H](Cc1c[nH]c2ccccc12)C(=O)N[C@H](C(=O)N[C@@H](CCCCN)C(=O)N[C@H](C(=O)N[C@@H](CCC(N)=O)C(=O)N[C@H](C(=O)N[C@H](C(=O)N[C@@H](CO)C(=O)N[C@@H](CCCCN)C(=O)N[C@@H](CC(C)C)C(=O)N[C@@H](CCCNC(=N)N)C(=O)N[C@@H](CC(C)C)C(N)=O)[C@@H](C)CC)[C@@H](C)CC)[C@@H](C)CC)[C@@H](C)CC) [PDM-31]
–	273 nM	{R^118}-RQNTRYSRIEWIKIQIISKLRL-NH2 (reading uncertain; also: N-terminal R118 group (Formula 11) structure not given here, printed as R118-RQNTRYSRIEWIKIQIISKLRL-NH2) [3d]
≥ 40 % inhibition	–	{m‑dPEG(4)-Ahx}-FYIEWIKIQIISKLRL-NH2 [PDM-32]
